Source: patent publication US20230144203A1 (SHANGHAI SENHUI MEDICINE CO., LTD., priority 2020, published 2023)

T1: huTROP-2 protein (His27-Thr274 Accession #NP_002344.2) (human, UniProt P09758 27-274)
T1 sequence: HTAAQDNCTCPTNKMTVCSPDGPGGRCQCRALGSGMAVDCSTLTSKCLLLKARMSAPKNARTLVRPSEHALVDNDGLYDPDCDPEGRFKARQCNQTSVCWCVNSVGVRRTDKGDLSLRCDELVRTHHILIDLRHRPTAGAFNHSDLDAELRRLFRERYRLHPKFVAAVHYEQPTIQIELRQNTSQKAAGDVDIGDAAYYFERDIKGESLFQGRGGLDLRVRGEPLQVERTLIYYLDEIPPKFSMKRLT

T2: huTROP-2 on CHO-K1 cells over-expressing huTROP-2 protein (human, UniProt P09758 27-323)
T2 construct: No signal peptide cleavage is stated for this form; also called CHO-K1/hTROP-2
T2 sequence: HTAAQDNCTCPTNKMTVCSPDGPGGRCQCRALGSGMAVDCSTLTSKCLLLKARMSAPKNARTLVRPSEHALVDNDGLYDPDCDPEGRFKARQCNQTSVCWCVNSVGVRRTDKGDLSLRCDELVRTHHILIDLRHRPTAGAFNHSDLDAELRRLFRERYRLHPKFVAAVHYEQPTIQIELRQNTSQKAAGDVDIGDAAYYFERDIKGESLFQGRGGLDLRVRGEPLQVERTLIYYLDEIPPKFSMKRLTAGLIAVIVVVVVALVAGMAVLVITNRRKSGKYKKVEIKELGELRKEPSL

T3: human CD79B (Homo sapiens, UniProt P40259)
T3 construct: the extracellular region (ECD) of which comprises 159 amino acids (Met1-Asp159); human Fc domain (hFc) OR His tag; made in house; host or cells: 293F cells
T3 sequence (P40259 29-159 limits assumed): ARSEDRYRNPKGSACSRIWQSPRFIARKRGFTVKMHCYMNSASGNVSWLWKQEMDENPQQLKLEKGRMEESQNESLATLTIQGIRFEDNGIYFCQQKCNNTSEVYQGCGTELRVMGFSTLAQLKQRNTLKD

T4: human CD79B (Homo sapiens, UniProt P40259)
T4 construct: endogenous in cells; host or cells: DOHH2
T4 sequence (P40259 29-229): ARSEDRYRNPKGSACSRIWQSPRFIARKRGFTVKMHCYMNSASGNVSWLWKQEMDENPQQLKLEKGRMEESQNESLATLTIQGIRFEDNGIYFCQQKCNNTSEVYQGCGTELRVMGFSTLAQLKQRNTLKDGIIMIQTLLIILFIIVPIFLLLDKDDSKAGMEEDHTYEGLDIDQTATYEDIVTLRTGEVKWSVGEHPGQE
T4 sequence (P11912 33-226 partner): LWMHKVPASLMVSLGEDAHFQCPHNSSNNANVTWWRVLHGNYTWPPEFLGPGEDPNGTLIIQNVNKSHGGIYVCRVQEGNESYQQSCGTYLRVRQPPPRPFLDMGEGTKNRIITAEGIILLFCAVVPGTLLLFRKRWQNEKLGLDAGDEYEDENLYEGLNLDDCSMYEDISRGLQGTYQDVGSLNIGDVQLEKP


What was measured:
[1] = tested on: human diffuse large B-cell lymphoma WSU-DLCL2; assay: Test Example 3 nude mouse subcutaneous xenograft tumor efficacy
Description: Human diffuse large B-cell lymphoma WSU-DLCL2 cells were purchased from DSMZ. WSU-DLCL2 cells were cultured in a 10-cm petri dish with RPMI 1640 medium (Gibco) containing 10% fetal bovine serum, penicillin and streptomycin (GIBCO, Cat #15070-063) and incubated in an incubator at 37° C. with 5% CO2. Subculturing was carried out 2-3 times a week and cells were collected, counted and inoculated when the cells grew in long-term exponentially.
Female BALB/c-nu nude mice with a growth period of 28-35 days was purchased from Beijing Huafukang Biotechnology Co., Ltd. Production license No.: SCXK (Beijing) 2019-0008, animal certification No.: 1103221911012510. Housing environment: SPF grade.
Each nude mouse was subcutaneously inoculated with 2.0×10^7 WSU-DLCL2 cells, and after the tumor volume grew to −100 mm^3, the animals were grouped according to tumor volume (D0). The mice was administrated by intravenous injection (IV), and the administration volume was 10 mL/kg; specific dosages and schedules are shown in Table 3. The tumor volumes and body weights were measured twice a week and the results were recorded.
The experimental index is to study the influence of the drug on the tumor growth, and the specific index is T/C % or tumor growth inhibition TGI (%). Tumor diameters were measured twice weekly with a vernier caliper and tumor volume (V) was calculated according to the following formula:
where a and b represent length and width, respectively. T/C (%)=(T−T0)/(C−C0)×100, where T and C were tumor volumes at the end of the experiment; T0 and C0 were tumor volumes at the beginning of the experiment.
If the volume of tumor shrank compared with its initial volume, i.e., T<T0 or C<C0, it was defined as partial regression(PR) of tumor; if the tumor completely disappeared, it was defined as complete regression (CR) of tumor.
Unless otherwise indicated, comparison between tumor volumes of the two groups was made by two-tailed student's t-test, with P<0.05 defined as statistically significant difference.

[2] = biological target: T1, huTROP-2 protein (His27-Thr274 …); assay: activity verification with huTROP-2 protein His27-Thr274 (method not detailed)
[3] = biological target: T2, huTROP-2 on CHO-K1 cells …; assay: activity verification on CHO-K1 cells over-expressing huTROP-2 (method not detailed)
human CD79B [4] = biological target: T3, human CD79B; assay: ELISA of culture supernatant of anti-human CD79B hybridoma positive clones; assay type: binding; settings: 1 μg/mL coated antigen
Description: (§1) 3) ELISA screening: the 96-well plates were correspondingly labeled before experiment, and coated with 1 μg/mL antigen at 50 μL per well in a refrigerator at 4° C. overnight. The next day, the coated antigen plates from the previous day were removed and washed once with a plate washer (cleaning solution: 1×PBST). After washing, the plates were blocked with 1% BSA blocking solution prepared in 1×PBST at 37° C. for 1 h. After being washed with 1×PBST cleaning solution for 3 times, the plates were added with 50 μL cell supernatant to be detected, and incubated in a 37° C. incubator for 1 h. After the plates were washed with 1×PBST cleaning solution for 3 times, added with 100 μL of goat anti-mouse secondary antibody diluted at 1:5000, and incubated in an incubator at 37° C. for 0.5 h. The plates were washed, the TMB color developing solution A solution and B solution in a ratio of 1:1 was taken for to color development. The color development reaction was terminated with 1 N hydrochloric acid for 15 min. Fluorescence value was read at 450 nm on a Spectra Max M5 multi-functional plate reader.
5) Hybridoma positive clone identification: after fusion and subclone screening of mouse splenocytes, multiple specific antibodies against human CD79B antigen were obtained, and the antibodies from the 17 strains of hybridomas having the highest binding to ELISA and FACS were produced and purified. […]

human CD79B [5] = biological target: T4, human CD79B; assay: FACS of culture supernatant of anti-human CD79B hybridoma positive clones on DOHH2 cells; assay type: binding
Description: (§2) 4) FACS screening: after centrifugation, the cell suspension of DOHH2 was resuspended in PBS containing 0.1% BSA, counted, added with the test cell supernatant and incubated at room temperature for 60 min. The cells were washed three times, then added with Anti-Mouse IgG (Fc specific)-FITC secondary antibody, and incubated at room temperature for 30 min in the dark. The cells were washed three times, gently resuspended in PBS containing 0.1% BSA, and then assayed using the machine.
5) Hybridoma positive clone identification: after fusion and subclone screening of mouse splenocytes, multiple specific antibodies against human CD79B antigen were obtained, and the antibodies from the 17 strains of hybridomas having the highest binding to ELISA and FACS were produced and purified. Meanwhile, specific antibodies against monkey CD79B antigen were obtained, and the 4 strains of hybridomas having the highest binding to ELISA and FACS were taken for production and purification of antibodies. mIgG was used as negative control in the both assays.

human CD79B [6] = biological target: T3, human CD79B; assay: ELISA assay on purified anti-human CD79B mouse monoclonal antibodies; assay type: binding
Description: as §1, with “2)” for “3)”, “assay on anti-human CD79B mouse monoclonal antibodies:” for “screening:”, “of diluted antibody at 1:10 at 100 nM,” for “cell supernatant to be detected,”

human CD79B [7] = biological target: T4, human CD79B; assay: FACS assay on purified anti-human CD79B mouse monoclonal antibodies (DOHH2 cells); assay type: binding
Description: as §2, with “3)” for “4)”, “assay on anti-human CD79B mouse monoclonal antibodies:” for “screening:”, “100 μL of antibody diluted 1:10 at 100 nM” for “the test cell supernatant”, “1 h.” for “60 min.”

| Molecule | Results (OD450) (human CD79B [4]) | Mean fluorescence value (human CD79B [5]) | ELISA binding capacity (human CD79B [6]) | FACS binding capacity (human CD79B [7]) | other results |
| --- | --- | --- | --- | --- | --- |
| polatuzumab [Polivy] | – | – | – | – | Tolerability in tumor-bearing mice ([1]; 1 mg/kg IV at D0, no significant weight loss): could well tolerate; Mean tumor volume (mean ± SEM) ([1]; D0, 1 mg/kg IV at D0): 108.07 ± 1.31 mm^3; Mean tumor volume (mean ± SEM) ([1]; D17, 1 mg/kg IV at D0): 550.88 ± 52.37 mm^3; T/C % ([1]; D17, 1 mg/kg IV at D0): 63%; Tumor inhibition rate (%) ([1]; D17, 1 mg/kg IV at D0): 37% |
| anti-TROP-2 antibody PD3 (antibody, human IgG1, kappa, V domains shown, also called anti-human TROP-2 monoclonal antibody) VH: EVQLVQSGSELKKPGASVKVSCKASGYTFTNYGMNWVKQAPGQGLKWMGWINTYTGEPTYTQDFKGRFAFSLDTSVSTAYLQISSLKAEDTAVYYCARGGFGSSYWYFDVWGQGTLVTVSS VL: DIQLTQSPSSLSASVGDRVSITCKASQDVSIAVAWYQQKPGKAPKLLIYSASYRYTGVPDRFSGSGSGTDFTLTISSLQPEDFAVYYCQQHYITPLTFGAGTKVEIKR | – | – | – | – | binding result [2]: binds; binding result [3]: binds |

More lines, main results first:

| Results (OD450) (human CD79B [4]) | Mean fluorescence value (human CD79B [5]) | ELISA binding capacity (human CD79B [6]) | FACS binding capacity (human CD79B [7]) | Molecule | other results |
| --- | --- | --- | --- | --- | --- |
| 3.41 | 10036 | highest ELISA binding capacity | highest FACS binding capacity | mAb015: anti-human CD79B mouse monoclonal antibody, VH SEQ ID NO: 3, VL SEQ ID NO: 4 (antibody, V domains shown) VH: QVQLQQSGAELARPGASVKLSCKASGSSFTSYGINWVKQRTGQGLEWIGEIFPRSGNTYYNEKFEGKATLTADKSSSTAYMELRSLTSEDSAVYFCAKGDLGDFDYWGQGTTLTVSS VL: DFLMTQTPLSLPVRLGDQASISCRSSQSIVHSDGNTYFEWYLQKPGQSPKLLIYKVSNRFSGVPDRFSGSGSGTDFTLKISRVEAEDLGVYYCFQGSHVPWTFGGGTKLEIK | – |
| 3.80 | 8132 | highest ELISA binding capacity | highest FACS binding capacity | mAb017: anti-human CD79B mouse monoclonal antibody, VH SEQ ID NO: 5, VL SEQ ID NO: 6 (antibody, V domains shown) VH: QVQLQQSGAELARPGASVKLSCKASGYTFTTYGINWVKQRTGQGLEWIGEIYPRSGNIYYNEKFKGKATLTADKSSSTAYMELRSLTSEDSAVYFCARGSDYDGDFAYWGQGTLVTVSA VL: DVLMTQTPLSLPVSLGDQASISCRSSQSIVHHDGNTYLEWYLQKPGQSPKLLIYKVSNRFSGVPDRFSGSGSGTDFTLKISRVEAEDLGVYYCFQGSHVPWTFGGGTQLEIK | – |
